Results as given in US12697350B2, “Methods and compositions for treating a premature termination codon-mediated disorder” (Tevard Biosciences, Inc., priority 2019, dated 2026).

Experiments:
[1] = tested on: EGFP-R96X-TGA reporter; experiment: PTC readthrough of ArgTCA suppressor tRNA versus nonsense suppression drugs, EGFP-R96X-TGA reporter, Neuro-2a cells (FIGS. 21-22); type: cell-based, mouse; conditions: versus ataluren, gentamicin, G418
Procedure: FIG. 21 depicts fluorescent images of Neuro-2a cells ~24 hours after transfection with an expression construct containing an EGFP-R96X-TGA reporter (“GFP-PTC”) and either (i) including the ArgTCA suppressor tRNA #115 (SEQ ID NO: 18) at the indicated copy number on the same construct, or (ii) treated with ataluren at the indicated concentration, (iii) treated with gentamicin at the indication concentration, or (iv) treated with G418 at the indicated concentration. For all experimental conditions, cell culture medium was replaced with fresh medium ~6 hours after transfection and the indicated drugs at the indicated concentrations were added at this point. […]
FIG. 22 is a graph depicting percentage of GFP positive cells as measured by flow cytometry at ~48 hours post transfection. […]
Disclosed suppressor tRNAs were tested alongside nonsense suppression drugs translarna (ataluren), gentamicin, and G418 (geneticin). PTC readthrough activity was measured in Neuro-2a cells ~48 hours after transfection with an expression construct containing a CAG:NLS-EGFP (R96X-TGA) reporter (as described in Example 1) and either (i) including an ArgTCA suppressor tRNA at the indicated copy number on the same construct, or (ii) treated with ataluren, (iii) treated with gentamicin, or (iv) treated with G418. […] PTC readthrough activity was measured as the percentage of EGFP positive cells. […]

[2] = tested on: EGFP-R96X-TGA; experiment: Readthrough of suppressor tRNA delivered by AAV-PHP.eB, EGFP-R96X-TGA, 293 cells pre-transfected with LY6A (FIG. 41); type: cell-based, human
From the text: FIG. 40 is a schematic representation of constructs that were packaged into AAV-PHP.eB capsids. Construct 262 contains wild-type EGFP driven by an EF1a promoter. Construct 269 contains EGFP-R96X-TGA driven by an EF1a promoter (SEQ ID NO: 177) and two copies of the ArgTCA suppressor tRNA #115 (SEQ ID NO: 18) (“TCA-115”) in the context of 55 bps upstream flanking genomic DNA from tRNA-Tyr-GTA-5-1 (SEQ ID NO: 900). Both constructs contain 5′ and 3′ ITR sequences from AAV2, which provide cis-acting elements for AAV replication and packaging.
FIG. 41 depicts readthrough activity of suppressor tRNAs delivered by AAV. AAV-PHP.eB containing the constructs shown in FIG. 40 was produced by Vigene Biosciences. 48 hours prior to AAV transduction, 293 cells were pre-transfected with an expression construct containing the LY6A gene, which is required for robust transduction by AAV-PHP.eB. Cells were transduced at an MOI of 1E5 vg/cell. Where indicated, cells were also transfected with an expression construct containing the EGFP-R96X-TGA reporter (SEQ ID NO: 31) and an expression construct containing the ArgTCA suppressor tRNA #115 (SEQ ID NO: 18). At 72 hours post transduction, the EGFP signal was quantified by immunofluorescence. Live cell images were captured on an EVOS FL Auto 2 imaging system. […]

B1: tRNA-Arg-TCT-2-1-TCA-SUP_no intron (nucleic acid)
chain: GGCTCCGTGGCGCAATGGATAGCGCATTGGACTTCAAATTCAAAGGTTCCGGGTTCGAGTCCCGGCGGAGTCG
modifications: chemistry not fully specified
PTC readthrough compared with nonsense suppression drugs [1]: far greater readthrough than any of the nonsense suppression drugs
readthrough activity, AAV delivery versus transient transfection ([2]; 293 cells pre-transfected with LY6A): comparable readthrough activity when delivered by AAV or transient transfection
PTC readthrough based on GFP intensity ([2]; AAV-PHP.eB with construct 269 (two copies of #115), MOI 1E5 vg/cell, 72 hours post transduction, normalized to construct 262 (wild-type EGFP)): ~ 13.2%
